In one assay the target is T1, mpl-Ig (UniProt P40238 26-491).
T1 construct: Used as conditioned medium of mpl-Ig-transfected 293 cells, captured on anti-human IgG Fc plates; also called Mpl (Mpl/TPO ELISA); not shown: Ig part, captured by rabbit anti-human IgG Fc
T1 sequence (looked up): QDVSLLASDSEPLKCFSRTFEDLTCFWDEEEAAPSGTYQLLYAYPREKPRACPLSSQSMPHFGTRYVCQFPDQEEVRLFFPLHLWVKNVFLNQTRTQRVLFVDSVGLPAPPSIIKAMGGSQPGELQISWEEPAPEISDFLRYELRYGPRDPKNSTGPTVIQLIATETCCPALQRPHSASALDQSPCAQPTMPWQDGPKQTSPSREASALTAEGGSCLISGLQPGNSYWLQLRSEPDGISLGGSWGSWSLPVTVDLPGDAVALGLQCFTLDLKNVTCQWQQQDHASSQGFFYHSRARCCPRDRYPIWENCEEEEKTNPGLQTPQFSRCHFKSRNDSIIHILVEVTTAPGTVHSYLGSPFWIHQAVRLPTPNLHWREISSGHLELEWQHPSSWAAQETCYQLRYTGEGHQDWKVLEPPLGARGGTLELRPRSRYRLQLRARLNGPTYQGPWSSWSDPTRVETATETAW
The experiment in a line: Mpl/TPO ELISA: inhibition of biotinylated TPO binding to captured mpl-Ig.

Assay [1] has as its target T2, c-mpl (thrombopoietin receptor) on HU-03 cells, human platelets or human cord blood cells (human, UniProt P40238 26-635).
T2 construct: whole, on cells; also called mpl receptor; TPO receptor
T2 sequence (looked up): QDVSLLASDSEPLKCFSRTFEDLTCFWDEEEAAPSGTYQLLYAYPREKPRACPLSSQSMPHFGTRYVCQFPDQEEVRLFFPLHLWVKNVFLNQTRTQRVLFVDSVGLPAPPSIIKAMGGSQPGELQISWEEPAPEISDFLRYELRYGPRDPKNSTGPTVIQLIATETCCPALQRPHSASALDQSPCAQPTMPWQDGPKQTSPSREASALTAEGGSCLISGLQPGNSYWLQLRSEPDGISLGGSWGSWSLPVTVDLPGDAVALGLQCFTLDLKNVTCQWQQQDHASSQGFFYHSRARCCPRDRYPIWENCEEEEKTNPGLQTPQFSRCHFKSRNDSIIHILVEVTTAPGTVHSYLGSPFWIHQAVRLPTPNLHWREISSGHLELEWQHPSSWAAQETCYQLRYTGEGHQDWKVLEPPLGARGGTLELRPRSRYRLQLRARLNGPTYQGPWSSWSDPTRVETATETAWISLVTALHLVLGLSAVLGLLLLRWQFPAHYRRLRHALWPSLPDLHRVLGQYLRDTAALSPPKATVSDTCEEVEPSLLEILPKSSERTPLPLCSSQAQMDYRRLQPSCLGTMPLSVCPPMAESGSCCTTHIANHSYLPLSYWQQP
The experiment in a line: Hu3 Binding: competition with 125I-TPO (100 pM) on HU-03 cells.
Method: HU-03 cells were agitated during the incubation period to keep them in suspension. The reaction mixture was overlayed on 1 ml 20% sucrose-HBSSB and microcentrifuged at 13,500 rpm for five minutes. The supernatants were aspirated, tube bottoms containing the cell pellets were cut off, and cell- or platelet-associated radioactivity was measured with an Iso Data Model 120 gamma counter.

For assay [2], the target named is T2, c-mpl (thrombopoietin receptor) on …. The experiment in a line: Platelets: competition with 125I-TPO (100 pM) on human platelets.
Assay [3] concerns the target c-mpl (thrombopoietin receptor) on HU-03 cells, human platelets or human cord blood cells (human) (UniProt P40238). The description is as above.
Assay [4] shares this target. The experiment in a line: cell-based or functional assay.
The target in assay [5] is mpl-Rse.gD chimeric receptor (human) (UniProt P40238). The experiment in a line: cell-based or functional assay.
The target in assay [6] is c-mpl (thrombopoietin receptor) on HU-03 cells, human platelets or human cord blood cells (human) (UniProt P40238). The experiment in a line: Hu3 Binding: competition with 125I-TPO (100 pM) on HU-03 cells.

B1: 12E10 Fab (Fab, V domains shown)
VH: QVQLQQSGPGLVKPSETLSLTCTVSGDSISSYYWSWIRQPPGKGLEWIGYIYYSGSTNYNPSLKSRVTISVDTSKSQFSLKLSSVTAADTAVYYCARGRYFDVWGRGTMVTVSS
VL: SYVLTQPPSVSGSPGQSITISCTGTSSDVGGYNYVSWYQQHPGKAPKLMIYEGSKRPSGVSNRFSGSKSGNTASLTISGLQAEDEADYYCSSYTTRSTRVFGGGTKLTVL
notes: Monovalent Fab′ from E. coli: human IgG1 CH1 ending thr-ala-ala-pro, human kappa1 CL (pXCA730) or human lambda CL (pXCA970)
Take B1: the IC50 with mpl-Ig is 180 nM; in assay [1], 500 nM.

B2: 12E10 IgG (antibody, V domains shown)
VH: QVQLQQSGPGLVKPSETLSLTCTVSGDSISSYYWSWIRQPPGKGLEWIGYIYYSGSTNYNPSLKSRVTISVDTSKSQFSLKLSSVTAADTAVYYCARGRYFDVWGRGTMVTVSS
VL: SYVLTQPPSVSGSPGQSITISCTGTSSDVGGYNYVSWYQQHPGKAPKLMIYEGSKRPSGVSNRFSGSKSGNTASLTISGLQAEDEADYYCSSYTTRSTRVFGGGTKLTVL
notes: Full length antibody with human IgG1 CH1, CH2 and CH3 domains, expressed in 293 or CHO cells; also called full length human antibody derivative of 12E10
Consider B2, for which the results for the IC50 (with mpl-Ig; in assay [2]; in assay [1]) were 0.45 nM, 500 nM and 50 nM, respectively.

B3: 12E10 Fab′2 (other)
VH: QVQLQQSGPGLVKPSETLSLTCTVSGDSISSYYWSWIRQPPGKGLEWIGYIYYSGSTNYNPSLKSRVTISVDTSKSQFSLKLSSVTAADTAVYYCARGRYFDVWGRGTMVTVSS
VL: SYVLTQPPSVSGSPGQSITISCTGTSSDVGGYNYVSWYQQHPGKAPKLMIYEGSKRPSGVSNRFSGSKSGNTASLTISGLQAEDEADYYCSSYTTRSTRVFGGGTKLTVL
notes: F(ab′)2 with leucine zipper, expressed in E. coli from pXCA740; copies: 2 + 2
On to B3, for which the IC50 in the assay with mpl-Ig was 640 nM; in assay [2], 500 nM; in assay [1], 10 nM.

B4: 12B5 IgG (antibody, from another filing)
scFv: QVQLVQSGGGLVRPGGSLSLSCAVSGITLRTYGMHWVRQAPGKGLEWVAGISFDGRSEYYADSVQGRFTISRDSSKNTLYLQMNSLRAEDTAVYYCARGAHYGFDIWGQGTMVTVSSGGGGTGGGGSGGGGSDIQMTQSPSTLSASIGDRVTITCRASEGIYHWLAWYQQKPGKAPKLLIYKASSLASGAPSRFSGSGSGTDFTLTISSLQPDDFATYYCQQYSNYPLTFGGGTKLEIK
For B4, the figures for the 50% inhibitory concentration (IC50) (with mpl-Ig; in assay [3]; in assay [6]) were 0.152 nM, 300 nM and 10 nM, respectively. The molecule also returned a Hu3 Proliferation (ED50) in assay [4] of 30 pM. The molecule further yielded a KIRA (ED50) in assay [5] of 400 pM.

For the origin of these results see US20060177441A1 (Genentech, published 2006).
